Measurements as given in publication PMC12866682 (2025).
Each block holds one molecule with its values, some of them ahead of it.

How the values were obtained:
[1] = target: T96K TREM2 protein (UniProt Q9NZC2); test: solid-phase binding (SPB) assay; WT, R47H or T96K TREM2 immobilised, MPO in solution (n=5); method not described in the text shown
[2] = target: T1, Purified human MPO (human, UniProt P05164 49-745); test: SPR
T1 chain: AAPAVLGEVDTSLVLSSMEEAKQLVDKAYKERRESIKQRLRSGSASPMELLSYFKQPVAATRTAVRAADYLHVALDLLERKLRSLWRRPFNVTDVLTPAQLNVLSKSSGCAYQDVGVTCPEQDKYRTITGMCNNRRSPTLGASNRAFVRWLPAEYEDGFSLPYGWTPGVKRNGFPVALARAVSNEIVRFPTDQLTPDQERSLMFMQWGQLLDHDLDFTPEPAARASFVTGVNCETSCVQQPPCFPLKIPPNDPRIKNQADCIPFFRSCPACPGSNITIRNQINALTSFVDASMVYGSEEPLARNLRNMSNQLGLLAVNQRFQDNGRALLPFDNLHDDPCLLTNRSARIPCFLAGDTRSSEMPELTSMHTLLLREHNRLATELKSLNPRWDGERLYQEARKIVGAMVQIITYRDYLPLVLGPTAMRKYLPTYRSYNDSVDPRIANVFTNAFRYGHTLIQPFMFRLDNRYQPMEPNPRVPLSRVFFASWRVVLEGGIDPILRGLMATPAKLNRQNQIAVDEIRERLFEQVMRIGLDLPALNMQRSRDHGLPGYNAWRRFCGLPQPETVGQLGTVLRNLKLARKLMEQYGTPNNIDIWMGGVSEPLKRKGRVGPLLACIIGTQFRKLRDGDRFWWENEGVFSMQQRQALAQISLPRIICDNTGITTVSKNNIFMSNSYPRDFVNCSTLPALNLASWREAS

- fold affinity over the WT or R47H TREM2 protein [1]: 1.3 fold
Molecule: Purified human MPO (from UniProt P05164 49-745) (ligand)

- Kd [2]: 551 nM
B1: Purified human TREM2 protein (receptor)
chain: HNTTVFQGVAGQSLQVSCPYDSMKHWGRRKAWCRQLGEKGPCQRVVSTHNLWLLSFLRRWNGSTAITDDTLGGTLTITLRNLQPHDAGLYQCQSLHGSEADTLRKVLVEVLADPLDHRDAGDLWFPGESESFEDAHVEHSISRSLLEGEIPFPPTSILLLLACIFLIKILAASALWAAAWHGQKPGTHPPSELDCGHDPGYQLQTLPGLRDT
